# T1: mStau2 dsRBD3-4 (Mus musculus, UniProt Q8CJ67 207-375)
# T1 sequence: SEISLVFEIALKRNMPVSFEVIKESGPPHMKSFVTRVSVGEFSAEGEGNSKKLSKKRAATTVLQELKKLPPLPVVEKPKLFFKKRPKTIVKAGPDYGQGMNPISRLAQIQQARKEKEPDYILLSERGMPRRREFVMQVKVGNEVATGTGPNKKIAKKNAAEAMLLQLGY
# T2: mStau2 dsRBD1-2 (Mus musculus, UniProt Q8CJ67 8-181)
# T2 sequence: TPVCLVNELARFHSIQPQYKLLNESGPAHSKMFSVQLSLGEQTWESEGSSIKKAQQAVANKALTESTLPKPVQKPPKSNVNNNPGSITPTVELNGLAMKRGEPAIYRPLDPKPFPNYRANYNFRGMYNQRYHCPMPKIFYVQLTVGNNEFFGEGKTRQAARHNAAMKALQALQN
# T3: mStau2 dsRBD3 (Mus musculus, UniProt Q8CJ67 207-274)
# T3 sequence: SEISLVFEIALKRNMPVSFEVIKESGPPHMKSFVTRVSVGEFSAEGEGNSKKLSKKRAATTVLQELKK
# T4: mStau2 full-length (Mus musculus, UniProt Q8CJ67 1-570)
# T4 sequence: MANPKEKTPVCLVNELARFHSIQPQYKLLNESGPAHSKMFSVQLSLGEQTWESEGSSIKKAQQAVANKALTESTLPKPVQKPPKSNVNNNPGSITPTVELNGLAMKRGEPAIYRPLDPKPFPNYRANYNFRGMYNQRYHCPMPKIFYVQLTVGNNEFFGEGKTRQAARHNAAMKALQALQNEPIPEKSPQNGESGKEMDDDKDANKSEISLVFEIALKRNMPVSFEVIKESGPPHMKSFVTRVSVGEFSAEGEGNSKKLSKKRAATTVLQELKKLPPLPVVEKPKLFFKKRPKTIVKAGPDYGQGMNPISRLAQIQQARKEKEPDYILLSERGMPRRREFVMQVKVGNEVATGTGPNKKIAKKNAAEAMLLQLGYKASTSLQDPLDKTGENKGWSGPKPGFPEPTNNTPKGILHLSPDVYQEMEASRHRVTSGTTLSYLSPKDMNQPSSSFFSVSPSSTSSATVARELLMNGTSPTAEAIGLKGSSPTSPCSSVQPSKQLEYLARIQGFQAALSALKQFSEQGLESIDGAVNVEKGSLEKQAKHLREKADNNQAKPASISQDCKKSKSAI
# T5: mStau2 dsRBD4 (Mus musculus, UniProt Q8CJ67 307-375)
# T5 sequence: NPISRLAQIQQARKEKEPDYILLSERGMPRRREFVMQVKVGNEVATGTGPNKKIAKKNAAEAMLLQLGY
# Tests used:
# [1] = biological target: T1, mStau2 dsRBD3-4; test: EMSA; almost abolished; no complex observed; SPR: HBS-EP (10 mM HEPES pH 7.4, 150 mM NaCl, 3 mM EDTA, 0.005% P20); EMSA: 5 nM RNA, protein buffer (40 mM Bis-Tris pH 7, 150 mM NaCl, 2 mM DTT presumed), 4% glycerol, 30 ug/mL yeast tRNA, RT; NMR: 150 mM NaCl, 20 mM Na phosphate pH 7.0, 5 mM DTT, 298 K; details: protein: recombinant; tags: HisSUMO removed; label: 5' 32P; hairpin, 3' ss extension
# [2] = biological target: T2, mStau2 dsRBD1-2; test: as above; details: protein: recombinant; tags: HisSUMO removed; label: 5' 32P; hairpin, 3' ss extension
# [3] = biological target: T1, mStau2 dsRBD3-4; test: EMSA; Kd micromolar; SPR: HBS-EP (10 mM HEPES pH 7.4, 150 mM NaCl, 3 mM EDTA, 0.005% P20); EMSA: 5 nM RNA, protein buffer (40 mM Bis-Tris pH 7, 150 mM NaCl, 2 mM DTT presumed), 4% glycerol, 30 ug/mL yeast tRNA, RT; NMR: 150 mM NaCl, 20 mM Na phosphate pH 7.0, 5 mM DTT, 298 K; details: protein: recombinant; tags: HisSUMO removed; label: 5' 32P; hairpin, 3' ss extension
# [4] = biological target: T2, mStau2 dsRBD1-2; test: as above; details: protein: recombinant; tags: HisSUMO removed; label: 5' 32P; hairpin, 3' ss extension
# [5] = biological target: T1, mStau2 dsRBD3-4; test: EMSA; SPR: HBS-EP (10 mM HEPES pH 7.4, 150 mM NaCl, 3 mM EDTA, 0.005% P20); EMSA: 5 nM RNA, protein buffer (40 mM Bis-Tris pH 7, 150 mM NaCl, 2 mM DTT presumed), 4% glycerol, 30 ug/mL yeast tRNA, RT; NMR: 150 mM NaCl, 20 mM Na phosphate pH 7.0, 5 mM DTT, 298 K; details: protein: recombinant; tags: HisSUMO removed; label: 5' 32P; hairpin
# [6] = biological target: T3, mStau2 dsRBD3; test: EMSA; up to 5 uM; SPR: HBS-EP (10 mM HEPES pH 7.4, 150 mM NaCl, 3 mM EDTA, 0.005% P20); EMSA: 5 nM RNA, protein buffer (40 mM Bis-Tris pH 7, 150 mM NaCl, 2 mM DTT presumed), 4% glycerol, 30 ug/mL yeast tRNA, RT; NMR: 150 mM NaCl, 20 mM Na phosphate pH 7.0, 5 mM DTT, 298 K; details: protein: recombinant; label: 5' 32P; hairpin
# [7] = biological target: T4, mStau2 full-length; test: EMSA; Kd low micromolar; SPR: HBS-EP (10 mM HEPES pH 7.4, 150 mM NaCl, 3 mM EDTA, 0.005% P20); EMSA: 5 nM RNA, protein buffer (40 mM Bis-Tris pH 7, 150 mM NaCl, 2 mM DTT presumed), 4% glycerol, 30 ug/mL yeast tRNA, RT; NMR: 150 mM NaCl, 20 mM Na phosphate pH 7.0, 5 mM DTT, 298 K; details: protein: recombinant; tags: HisSUMO; label: 5' 32P; hairpin
# [8] = biological target: T2, mStau2 dsRBD1-2; test: EMSA; comparable with dsRBD3-4; SPR: HBS-EP (10 mM HEPES pH 7.4, 150 mM NaCl, 3 mM EDTA, 0.005% P20); EMSA: 5 nM RNA, protein buffer (40 mM Bis-Tris pH 7, 150 mM NaCl, 2 mM DTT presumed), 4% glycerol, 30 ug/mL yeast tRNA, RT; NMR: 150 mM NaCl, 20 mM Na phosphate pH 7.0, 5 mM DTT, 298 K; details: protein: recombinant; tags: HisSUMO removed; label: 5' 32P; hairpin
# [9] = biological target: T5, mStau2 dsRBD4; test: EMSA; binds at micromolar concentrations; SPR: HBS-EP (10 mM HEPES pH 7.4, 150 mM NaCl, 3 mM EDTA, 0.005% P20); EMSA: 5 nM RNA, protein buffer (40 mM Bis-Tris pH 7, 150 mM NaCl, 2 mM DTT presumed), 4% glycerol, 30 ug/mL yeast tRNA, RT; NMR: 150 mM NaCl, 20 mM Na phosphate pH 7.0, 5 mM DTT, 298 K; details: protein: recombinant; label: 5' 32P; hairpin
Binder,binding result [3],binding result [4],binding result [7],other results
GGACAUGCAUUUGGUAUGUAUAUA (structured_RNA) [7 bp SRS2 stem-loop (6bpSRS2+5)],,,,binding result [1]: no binding; binding result [2]: no binding
GGACAUGCACAUGAUUUGUAUGUGUAUGUAUAUA (structured_RNA) [12 bp SRS2 stem-loop (11bpSRS2+5)],binds,binds,,
GGACAUGCACAAUUUGUGUGUAUGUAUAUA (structured_RNA) [10 bp SRS2 stem-loop (9bpSRS2+5)],binds,binds,,
GGACAUGCAAUUUGUGUAUGUAUAUA (structured_RNA) [8 bp SRS2 stem-loop (7bpSRS2+5)],binds,binds,,
GGGACAUGCACAUGCAAUUUGUGUAUGUGUAUGU (structured_RNA) [Rgs4 SRS2 (EMSA transcript)],,,binds,binding result [5]: binds; binding result [6]: no binding; binding result [8]: binds; binding result [9]: binds
GGGUUCCGUCAAGCCACUGGGUCUUGAUGGAGC (structured_RNA) [Rgs4 SRS1],,,binds,

# — PMC6477676, “Staufen2-mediated RNA recognition and localization requires combinatorial action of multiple domains”
